In US5851983A, “Elastase inhibitory polypeptide and process for production thereof by recombinant gene technology” (Teijin Limited, priority 1987, dated 1998):

How the values were obtained:
Format in all cases: biochemical
[1] = target: T1, Human plasma plasmin (Homo sapiens, UniProt P00747); assay: Assay for plasmin inhibitory activity (Example 25); settings: final concentration up to ×10^-5 M; enzyme 1.0 × 10^-7 M
T1 construct: (6) Human plasma plasmin (Kabi, Daiichi Kagaku Yakuhin); purchased Kabi (via Daiichi Kagaku Yakuhin); host or cells: human plasma
Protocol: G. Human plasma plasmin (sigma)
Plasmin: 50 mM Tris-HCl, 100 mM NaCl (pH 7.4) […]
(§1) Substrate solution: for the enzymes F, G, H and I, the following substrate f, g, h or i, respectively, was dissolved to a final concentration shown in Table 14.
g. H.D-Val-Leu-Lys-pNA (Kabi Vitrum)
(§2) To wells of an ELISA 96-well microtiter plate, were added a solution of (Arg^59 -Ala^107) SLPI obtained in Example 23 and then the enzyme solution, and the mixture was incubated at 37° C. for 10 minutes. Next, the substrate solution was added to develop the color, whose absorption was then measured at 405 nm. As a control, SLPI was used.

[2] = target: T2, polymorphonuclear leucocyte elastase from human sputum (Homo sapiens, UniProt P08246); assay: Assay for elastase inhibitor activity (Example 24); settings: enzyme 2 × 10^-8 M, substrate 3.0 × 10^-4 M
T2 construct: Polymorphonuclear leukocyte elastase from human sputum (EPC Co; Funakoshi Yakuhin); purchased EPC Co. (via Funakoshi Yakuhin); host or cells: human sputum
T2 sequence (P08246 30-267): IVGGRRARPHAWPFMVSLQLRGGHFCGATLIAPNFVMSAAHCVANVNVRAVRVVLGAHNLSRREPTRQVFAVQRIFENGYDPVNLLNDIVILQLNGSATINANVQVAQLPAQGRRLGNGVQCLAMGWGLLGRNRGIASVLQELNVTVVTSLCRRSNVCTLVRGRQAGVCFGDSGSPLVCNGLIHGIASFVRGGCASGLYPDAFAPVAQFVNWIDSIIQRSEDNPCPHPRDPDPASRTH
Protocol: (§3) The following assay method was used.
(§4) Buffer: 0.1M (2-hydroxyethyl)piperazine-N'-2-ethansulfonic acid (HEPES), 0.5M NaCl, pH 7.5.
(§5) Enzyme concentration: the following enzyme was dissolved in the above-mentioned buffer to a concentration 9 times that shown in Table 12.
(§6) A. Polymorphonuclear leucocyte elastase from human sputum (EPC Co., Funakoshi Yakuhin)
Substrate solution: for the enzymes A, B, C, D and E, the following substrate a, b, c, d or e, respectively, was dissolved in a solution of DMSO+the above-mentioned buffer (1:9) (note, final concentration of DMSO was 10% in the buffer) to a concentration of 9 times that shown in Table 12.
(§7) a. MeO-Suc-Ala-Ala-Pro-Val-pNA (Bachem) […]
(§8) To wells of an ELISA 96-well microtiter plate, were added 120 μl of the buffer and the 20 μl of a sample solution of (Arg^59 -Ala^107) SLPI obtained in Example 23, followed by 20 μl of the enzyme solution. The mixture was reacted at 37° C. for 10 minutes. Next, 20 μl of the substrate was added, and developed at 37° C. The developed color was measured by absorption at 405 nm.
(§9) As a control the same procedure was carried out using SLPI.

[3] = target: T3, Human plasma kallikrein (Homo sapiens, UniProt P03952); assay: Assay for kallikrein inhibitory activity (Example 25); settings: final concentration up to ×10^-5 M; enzyme 1.0 × 10^-7 M
T3 construct: (7) Human plasma kallikrein (Kabi, Daiichi Kagaku Yakuhin); purchased Kabi (via Daiichi Kagaku Yakuhin); host or cells: human plasma
Protocol: H. Human plasma kallikrein (Protogene, Funakoshi Yakuhin)
Kallikrein: 50 mM Tris-HCl, 361 mM NaCl, 0.01 mg/ml polybrene (pH 7.8) […]
as §1
h. H.D-Pro-Phe-Arg-pNA (Kabi Vitram)
as §2

[4] = target: T4, Bovine spleen trypsin (Bos taurus, UniProt P00760); assay: Assay for trypsin inhibitor activity (Example 24); settings: enzyme 2 × 10^-7 M, substrate 1.0 × 10^-3 M
T4 construct: purchased Sigma
T4 sequence (P00760 24-246): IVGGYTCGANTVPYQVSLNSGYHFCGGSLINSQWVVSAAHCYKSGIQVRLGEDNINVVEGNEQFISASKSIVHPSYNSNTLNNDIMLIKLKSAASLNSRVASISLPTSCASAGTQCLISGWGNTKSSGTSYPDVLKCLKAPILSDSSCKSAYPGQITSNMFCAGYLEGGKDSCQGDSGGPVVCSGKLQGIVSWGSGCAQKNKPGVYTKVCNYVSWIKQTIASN
Protocol: as §3, §4, §5
B. Bovine spleen trypsin (Sigma)
Substrate solution: for the enzymes A, B, C, D and E, the following substrate a, b, c, d or e, respectively, was dissolved in a solution of DMSO+the above-mentioned buffer (1:9) (note, final concentration of DMSO was 10% in the buffer) to a concentration of 9 times that shown in Table 12. […]
as §8, §9

[5] = test system: Porcine FXa; assay: Assay for Fxa inhibitory activity (Example 25); settings: final concentration up to ×10^-5 M; enzyme 1.0 × 10^-8 M
Protocol: I. Porcine FXa (Daichi Seiyaku)
(§10) Buffer: Buffer solution for each enzyme is as follow. Thrombin and FXa: 50 mM Tris-HCl, 7.5 mM EDTA-2Na, 175 mM NaCl (pH 8.4) […]
as §1
i. Ratio 1:1 mixture of the following compounds: [drawing 5]
as §2

[6] = target: T5, Human plasma thrombin (Homo sapiens, UniProt P00734); assay: Assay for thrombin inhibitory activity (Example 25); settings: final concentration up to ×10^-5 M; enzyme 3 × 10^-9 M
T5 construct: (5) Human plasma thrombin (Kabi, Daiichi Kagaku Yakuhin); purchased Kabi (via Daiichi Kagaku Yakuhin); host or cells: human plasma
Protocol: F. Human plasma thrombin (Sigma)
as §10, §1
f. H.D-Phe-Pip-Arg-pNA (Kabi Vitrum)
as §2

[7] = test system: polymorphonuclear leucocyte elastase from human sputum; assay: Inhibitory constant (Ki) assay, elastase (Example 26); settings: from Table 16
Protocol: Method for assay is as follow.
Buffer: 0.1M N-(2-hydroxyethyl)piperazine-N'-2-ethanesulfonic acid (HEPES), 1.0M NaCl, 0.1% polyethylene glycol (pH 7.5)
Enzyme solution: the following enzyme was dissolved in the above-mentioned buffer to a concentration 9 times that shown in Table 15.
as §6
Substrate solution: for the enzymes A and B, the following substrate a or b was dissolved in a solution of DMSO+the above-mentioned buffer (1:9), or in DMSO, respectively.
as §7
To wells of an ELISA 96-well microtiter plate, were added 120 μl of the buffer, 20 μl of a sample solution of (Arg^59 -Ala^107) SLPI obtained in Example 23, and 20 μl of the enzyme solution in this order, an the mixture was reacted at 37° C. for 1 hour. Next, 20 μl of the substrate was added to develop at 25° C. Absorption of the developed color was measured at 405 nm. As a control, SLPI was used.
On the basis of the result thus obtained, an inhibitory constant (Ki) of (Arg^59 -Ala^107) SLPI of the present invention was calculated according to the method of Henderson (Henderson, P. J. F. (1972), Biochem. J. 127, 321-333).

[8] = target: T6, polymorphonuclear leukocyte elastase from human sputum (Homo sapiens, UniProt P08246); assay: Serine protease inhibitory assay, Example 12: human elastase; settings: read-out: concentration of inhibitory protein which exhibits a 50% inhibition; enzyme 10^-9 M; MeO-Suc-Ala-Ala-Pro-Val-pNA 0.3 mM; 37° C.
T6 construct: Polymorphonuclear leukocyte elastase from human sputum (EPC Co; Funakoshi Yakuhin); purchased EPC Co. (via Funakoshi Yakuhin); host or cells: human sputum
T6 sequence (P08246 30-267): T2 sequence (P08246 30-267)
Protocol: (§11) To each well of a 96-well ELISA microplate were added 140 μl of the above-mentioned buffer, 20 μl of a test solution, and 20 μl of the enzyme solution, and the mixture was stirred at 37° C. for 30 minutes. Next, 20 μl of the substrate solution was added to the well, the mixture was stirred at 37° C. for one hour to develop same, and the absorbance at 405 nm was measured.

[9] = target: T1, Human plasma plasmin; assay: Serine protease inhibitory assay, Example 12: plasmin; settings: read-out: concentration of inhibitory protein which exhibits a 50% inhibition; enzyme 10^-8 M; H-D-Val-Leu-Lys-pNA 0.1 mM; 37° C.
Protocol: (§12) Assay of serine protease inhibitory activity of active-type (Asn^55 -Ala^107) SLPI fragment polypeptide
(§13) The active-type (Asn^55 -Ala^107) SLPI fragment polypeptide obtained by refolding by the procedure shown in Example 11 as measured to determine its inhibitory activity to various serine proteases. The assay result thereof is shown as follows.
(§14) Enzyme solution: The following enzymes were dissolved in the above-mentioned buffer solutions at a concentration ten-times higher than the concentration shown in Table 4.
(6) Human plasma plasmin (Kabi, Daiichi Kagaku Yakuhin)
(§15) Substrate solution: For the above-mentioned enzymes (1) to (7), the following substrates (1) to (7), respectively, were dissolved in dimethyl sulfoxyde to a concentration of 10 mM to prepare stock solutions, which were then dissolved in the above-mentioned buffer solution to concentration ten-times higher than final concentrations, to prepare substrate solutions. […]
as §11

[10] = target: T7, Calf pancreatic trypsin (Bos taurus, UniProt P00760); assay: Serine protease inhibitory assay, Example 12: trypsin; settings: read-out: concentration of inhibitory protein which exhibits a 50% inhibition; enzyme 10^-7 M; Bz-Arg-pNA 1.0 mM; 37° C.
T7 construct: (2) Calf pancreatic trypsin (Sigma); purchased Sigma; host or cells: calf pancreas
T7 sequence (P00760 24-246): T4 sequence (P00760 24-246)
Protocol: as §12, §13, §14
(2) Calf pancreatic trypsin (Sigma)
as §15, §11
Moreover, an inhibitory constant Ki of the present (Asn^55 -Ala^107) SLPI was calculated on the basis of the above data by a method of Dixon, M. and Webb, E. C. (1979), Enzyme, Longman or a method of Henderson, P. J. F. (1972) Biochem. J., 127, 321-333.

[11] = target: T8, Porcine pancreatic elastase (Sus scrofa, UniProt P00772); assay: Serine protease inhibitory assay, Example 12: porcine elastase; settings: read-out: concentration of inhibitory protein which exhibits a 50% inhibition; enzyme 6 × 10^-9 M; Suc-Ala-Ala-Ala-pNA 0.1 mM; 37° C.
T8 construct: (4) Porcine pancreatic elastase (Sigma); purchased Sigma; host or cells: porcine pancreas
Protocol: as §12, §13, §14
(4) Porcine pancreatic elastase (Sigma)
as §15, §11

[12] = target: T3, Human plasma kallikrein; assay: Serine protease inhibitory assay, Example 12: kallikrein; settings: read-out: concentration of inhibitory protein which exhibits a 50% inhibition; enzyme 10^-8 M; H-D-Pro-Phe-Arg-pNA 0.1 mM; 37° C.
Protocol: as §12, §13, §14
(7) Human plasma kallikrein (Kabi, Daiichi Kagaku Yakuhin)
as §15, §11

[13] = target: T5, Human plasma thrombin; assay: Serine protease inhibitory assay, Example 12: thrombin; settings: read-out: concentration of inhibitory protein which exhibits a 50% inhibition; enzyme 10^-11 M; H-D-Phe-Pip-Arg-pNA 0.1 mM; 37° C.
Protocol: as §12, §13, §14
(5) Human plasma thrombin (Kabi, Daiichi Kagaku Yakuhin)
as §15, §11

[14] = target: T9, Calf pancreatic chymotrypsin (Bos taurus, UniProt P00766); assay: Serine protease inhibitory assay, Example 12: chymotrypsin; settings: read-out: concentration of inhibitory protein which exhibits a 50% inhibition; enzyme 10^-8 M; Suc-Ala-Ala-Pro-Phe-pNA 0.1 mM; 37° C.
T9 construct: (3) Calf pancreatic chymotrypsin (Sigma); purchased Sigma; host or cells: calf pancreas
Protocol: as §12, §13, §14
(3) Calf pancreatic chymotrypsin (Sigma)
as §15, §11

T1 sequence (P00747 581-810 limits assumed): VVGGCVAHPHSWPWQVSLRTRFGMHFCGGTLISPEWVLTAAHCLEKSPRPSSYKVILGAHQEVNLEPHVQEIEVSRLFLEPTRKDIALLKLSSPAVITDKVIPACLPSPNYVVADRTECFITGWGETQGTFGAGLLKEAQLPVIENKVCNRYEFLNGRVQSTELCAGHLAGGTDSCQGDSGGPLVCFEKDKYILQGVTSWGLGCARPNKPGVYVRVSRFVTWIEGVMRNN
T1 sequence (P00747 97-580 partner limits assumed): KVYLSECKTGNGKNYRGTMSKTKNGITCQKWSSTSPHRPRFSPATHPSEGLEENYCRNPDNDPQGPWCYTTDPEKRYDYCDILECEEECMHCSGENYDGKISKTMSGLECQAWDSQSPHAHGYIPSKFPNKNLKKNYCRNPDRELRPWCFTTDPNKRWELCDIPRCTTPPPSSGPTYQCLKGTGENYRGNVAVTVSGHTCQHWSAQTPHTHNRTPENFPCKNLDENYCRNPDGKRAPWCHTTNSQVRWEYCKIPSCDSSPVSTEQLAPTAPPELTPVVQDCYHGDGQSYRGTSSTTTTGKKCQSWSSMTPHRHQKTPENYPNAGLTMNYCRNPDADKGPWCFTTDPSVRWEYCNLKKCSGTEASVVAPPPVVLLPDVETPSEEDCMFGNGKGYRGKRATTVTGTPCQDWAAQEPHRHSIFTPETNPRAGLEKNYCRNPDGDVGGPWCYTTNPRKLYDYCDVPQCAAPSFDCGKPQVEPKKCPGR
T3 sequence (P03952 391-638 limits assumed): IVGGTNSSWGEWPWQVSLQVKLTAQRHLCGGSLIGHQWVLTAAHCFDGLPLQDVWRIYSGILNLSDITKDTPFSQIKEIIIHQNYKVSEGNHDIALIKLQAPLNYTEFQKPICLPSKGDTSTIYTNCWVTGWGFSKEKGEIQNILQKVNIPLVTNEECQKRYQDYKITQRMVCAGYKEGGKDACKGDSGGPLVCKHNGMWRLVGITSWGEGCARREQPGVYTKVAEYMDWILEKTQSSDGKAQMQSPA
T3 sequence (P03952 20-390 partner limits assumed): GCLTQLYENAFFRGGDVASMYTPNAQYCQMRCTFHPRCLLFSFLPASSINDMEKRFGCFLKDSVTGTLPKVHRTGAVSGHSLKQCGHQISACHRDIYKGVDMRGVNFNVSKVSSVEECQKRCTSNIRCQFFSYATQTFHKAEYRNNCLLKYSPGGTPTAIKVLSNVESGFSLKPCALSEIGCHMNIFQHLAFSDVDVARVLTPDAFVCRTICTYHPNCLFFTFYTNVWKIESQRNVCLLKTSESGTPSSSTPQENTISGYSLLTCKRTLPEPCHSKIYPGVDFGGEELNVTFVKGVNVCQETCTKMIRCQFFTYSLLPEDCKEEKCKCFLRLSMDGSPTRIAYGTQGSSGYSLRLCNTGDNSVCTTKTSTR
T8 sequence (P00772 27-266): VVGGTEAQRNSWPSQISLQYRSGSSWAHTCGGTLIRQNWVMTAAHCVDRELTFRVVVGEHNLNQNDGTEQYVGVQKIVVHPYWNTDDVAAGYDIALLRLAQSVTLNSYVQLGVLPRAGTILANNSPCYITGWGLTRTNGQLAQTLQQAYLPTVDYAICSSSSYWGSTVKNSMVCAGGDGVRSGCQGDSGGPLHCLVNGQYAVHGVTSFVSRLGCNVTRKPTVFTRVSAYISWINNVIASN

Substance	inhibitory activity to plasmin [1]	IC50 [2]	inhibitory activity to kallikrein [3]	IC50 [4]	inhibitory activity to FXa [5]	inhibitory activity to thrombin [6]	relative ratio of inhibitory activity on trypsin to that on elastase (Ki(T)/Ki(E)) [7]	IC50 [8]	IC50 [9]	IC50 [10]	IC50 [11]	IC50 [12]	IC50 [13]	IC50 [14]
(Arg^59 -Ala^107) SLPI: polypeptide having an amino acid sequence starting with the 59th Arg and ending at the 107th Ala of SLPI (RKPGKCPVTYGQCLMLNPPNFCEMDGQCKRDLKCCMGMCGKSCVSPVKA)	did not exhibit inhibitory activity	12 nM	did not exhibit inhibitory activity	2000 nM	did not exhibit inhibitory activity	did not exhibit inhibitory activity	about 14,000	–	–	–	–	–	–	–
Aprotinin	–	–	–	–	–	–	–	300 nM	5 nM	100 nM	> 2000 nM	70 nM	> 2000 nM	50 nM
α1 -PI: α1 -AT (Sigma), inhibitory protein used as a positive control	–	–	–	–	–	–	–	–	> 2000 nM	200 nM	300 nM	> 2000 nM	> 2000 nM	2000 nM
